# Data from US20240301041A1 (Regeneron, published 2024).
# B1: H1xH15140P*/* (anti-Protein A) (antibody, V domains shown)
# VH: EVQLVESGGGLVQPGGSLTLSCTASGFSFSSYVMSWVRQSPGKGLEWVSAIGGSGTSTYYRDSVKGRFTISRDNSKNTLNLQMSSLRAEDTAVYYCARDGLGHRDYWGQGTLVTVSS
# VL: DIQMTQSPSSVSASVGDRVTITCRASQGINSWLAWYQQKPGKAPKLLIYAASSLQSGVPSRFSGSGSGTDFTLTISSLQPEDFATYYCQQANSFPFTFGPGTKVDIK
# notes: also called anti-Protein A hIgG1*/*; H1xH15140P*/*-L1
# Columns and labels:
# [1] = biological target: T1, IgG binding protein (Protein A homolog SpsQ/SpsP) on S. pseudintermedius AHDRCC 98200 (Staphylococcus pseudintermedius); assay: ELISA, coated S. pseudintermedius 98200, antibody 6.03E-10 M
# T1 construct: whole, on cells; also called S. pseudintermedius 98200; Staphylococcus pseudintermedius AHDRCC 98200
# [2] = biological target: T2, IgG binding protein (Protein A homolog SpsQ/SpsP) on S. intermedius 27369 (Staphylococcus intermedius); assay: ELISA, coated S. intermedius 27369, antibody 1.47E-13 M
# T2 construct: whole, on cells; also called Staphylococcus intermedius 27369
# [3] = biological target: T3, Protein A on the surface of S. aureus Newman wild-type (Staphylococcus aureus (strain Newman), UniProt P38507 37-477); assay: ELISA, coated S. aureus Newman, antibody 1.47E-13 M
# T3 construct: whole, on cells; also called S. aureus Newman WT; wild-type S. aureus expressing Protein A
# [4] = biological target: T1, IgG binding protein (Protein A homolog …); assay: ELISA, coated S. pseudintermedius 98200, antibody 9.42E-12 M
# [5] = biological target: T3, Protein A on the surface of S. aureus …; assay: flow cytometry; blocking antibody 1 ug/mL, then Alexa-488 VH3 hIgG1*/* antibody (competitor) on wild-type S. aureus
# [6] = biological target: T2, IgG binding protein (Protein A homolog …); assay: ELISA, coated S. intermedius 27369, antibody 7.54E-11 M
# [7] = biological target: T3, Protein A on the surface of S. aureus …; assay: ELISA on plate-coated S. aureus Newman WT
# [8] = biological target: T3, Protein A on the surface of S. aureus …; assay: ELISA, coated S. aureus Newman, antibody 3.09E-07 M
# [9] = biological target: T2, IgG binding protein (Protein A homolog …); assay: ELISA, coated S. intermedius 27369, antibody 6.03E-10 M
# [10] = biological target: T4, Protein A (purified reagent) (Staphylococcus aureus, UniProt P38507 37-477); assay: SPR (Biacore), mAb captured by anti-human Fc, Protein A injected, 37 C
# T4 construct: also called Protein A (Calbiochem, 539202-5 MG); Protein A reagent
# [11] = biological target: T3, Protein A on the surface of S. aureus …; assay: ELISA, coated S. aureus Newman, antibody 7.54E-11 M
# [12] = biological target: T3, Protein A on the surface of S. aureus …; assay: ELISA, coated S. aureus Newman, antibody 6.03E-10 M
# [13] = biological target: T2, IgG binding protein (Protein A homolog …); assay: ELISA, coated S. intermedius 27369, antibody 4.82E-09 M
# [14] = biological target: T1, IgG binding protein (Protein A homolog …); assay: ELISA, coated S. pseudintermedius 98200, antibody 3.09E-07 M
# [15] = biological target: T5, IgG binding protein (Protein A homolog SpsQ/SpsP) on MRSP S. pseudintermedius 88493 (Staphylococcus pseudintermedius); assay: ELISA, coated S. pseudintermedius 88493, antibody 1.18E-12 M
# T5 construct: whole, on cells; also called MRSP Staphylococcus pseudintermedius 88493 (methicillin-resistant)
# [16] = biological target: T2, IgG binding protein (Protein A homolog …); assay: ELISA, coated S. intermedius 27369, antibody 1.18E-12 M
# [17] = biological target: T3, Protein A on the surface of S. aureus …; assay: flow cytometry; blocking antibody 1 ug/mL, then Alexa-488 Fc fragment (competitor) on wild-type S. aureus
# [18] = biological target: T4, Protein A (purified reagent); assay: SPR (Biacore), mAb captured by anti-human Fc, Protein A injected, 25 C
# [19] = biological target: T5, IgG binding protein (Protein A homolog …); assay: ELISA, coated S. pseudintermedius 88493, antibody 1.47E-13 M
binder,measurement,setting,value
B1,ELISA luminescent signal,[1],4890
same,ELISA luminescent signal,[2],1510
same,ELISA luminescent signal,[3],22000
same,ELISA luminescent signal,[4],2480
same,VH3 antibody: S. aureus blocking activity (%),[5],84.5%
same,ELISA luminescent signal,[6],2660
same,EC50,[7],0.0154 nM
same,ELISA luminescent signal,[8],979000
same,ELISA luminescent signal,[9],3340
same,Kd,[10],0.0986 nM
same,koff,[10],0.000117 s⁻¹
same,kon,[10],1.19e+06 M⁻¹ s⁻¹
same,t½,[10],1.65 h
same,ELISA luminescent signal,[11],238000
same,ELISA luminescent signal,[12],647000
same,ELISA luminescent signal,[13],3030
same,ELISA luminescent signal,[14],20600
same,ELISA luminescent signal,[15],5990
same,ELISA luminescent signal,[16],2460
same,Fc: S. aureus blocking activity (%),[17],78%
same,Kd,[18],0.204 nM
same,koff,[18],7.78e-05 s⁻¹
same,kon,[18],381000 M⁻¹ s⁻¹
same,t½,[18],2.48 h
same,ELISA luminescent signal,[19],3470
